# Source: IntAct's records for PubMed 19570982
# B1: Fibulin-5 (Homo sapiens), Q9UBX5 (parent)
# chain: MPGIKRILTVTILALCLPSPGNAQAQCTNGFDLDRQSGQCLDIDECRTIPEACRGDMMCVNQNGGYLCIPRTNPVYRGPYSNPYSTPYSGPYPAAAPPLSAPNYPTISRPLICRFGYQMDESNQCVDVDECATDSHQCNPTQICINTEGGYTCSCTDGYWLLEGQCLDIDECRYGYCQQLCANVPGSYSCTCNPGFTLNEDGRSCQDVNECATENPCVQTCVNTYGSFICRCDPGYELEEDGVHCSDMDECSFSEFLCQHECVNQPGTYFCSCPPGYILLDDNRSCQDINECEHRNHTCNLQQTCYNLQGGFKCIDPIRCEEPYLRISDNRCMCPAENPGCRDQPFTILYRDMDVVSGRSVPADIFQMQATTRYPGAYYIFQIKSGNEGREFYMRQTGPISATLVMTRPIKGPREIQLDLEMITVNTVINFRGSSVIRLRIYVSQYPF
# Variants of: B1
# Conditions: with eln_human ELN
row,effect of a mutation on the interaction,Variant
1,decreasing interaction,C217R
2,decreasing interaction,S227P
